Three substances from patent US20240132578A1 can be followed below.

Common to all, as to experiment: cell-based or functional assay
Assay [1] concerns the target HIV-1 92UG005 envelope protein (Env) on pseudovirus (HIV-1).
Assay [2] has as its target HIV-1 92UG024 Env (HIV-1).
Assay [3] has as its target HIV-1 Env of isolate 92WR026 (pseudovirus) (HIV-1).
Assay [4] has as its target HIV-1 Env of isolate MGRM-A-012 (subtype A) (HIV-1).
The target in assay [5] is HIV-1 Env of isolate MGRM-AG-006 (subtype AG) (HIV-1).
In assay [6] the target is HIV-1 Env of isolate MGRM-AG-013 (subtype AG) (HIV-1).
Assay [7] has as its target HIV-1 Env of isolate MGRM-D-005 (pseudovirus) (HIV-1).
The target in assay [8] is HIV-1 Env of isolate MGRM-D-024 (HIV-1).
Assay [9] addresses HIV-1 Env of isolate MGRM-F1-004 (HIV-1).
Assay [10] concerns the target HIV-1 Env of isolate MGRM-F1-014 (HIV-1).
The target of assay [11] is HIV-1 Env of isolate MGRM-F1-017 (HIV-1).
Assay [12] deals with HIV-1 Env of pseudovirus isolate MGRM-C-023 (clade C) (HIV-1).
Assay [13] concerns the target HIV-1 JR-CSF Env N301A (HIV-1 (isolate JR-CSF, clade B)) (UniProt P20871).
Assay [14] addresses HIV-1 JR-CSF Env S334A (HIV-1 isolate JR-CSF) (UniProt P20871).
Assay [15] deals with HIV-1 MGRM-C-026 Env (HIV-1).
Assay [16] concerns the target HIV-1 MGRM-D-018 Env (HIV-1).
For assay [17], the target named is HIV-1 MGRM-D-018 envelope protein (Env) on pseudovirus (HIV-1).
The target of assay [18] is HIV-1 Env of isolate MGRM-AG-006 (pseudovirus) (HIV-1).
For assay [19], the target named is HIV-1 Env of isolate MGRM-F1-017 (pseudovirus) (HIV-1).
For assay [20], the target named is HIV-1 envelope glycoprotein (Env) of isolate 92UG037, subtype A (HIV-1).
In assay [21] the target is HIV-1 envelope glycoprotein (Env) of isolate 92WR009, subtype A (HIV-1).
Assay [22] has as its target HIV-1 envelope glycoprotein (Env) of isolate 92WR020, subtype A (HIV-1).
Assay [23] addresses HIV-1 envelope glycoprotein (Env) of isolate 92WR024, subtype A (HIV-1).
For assay [24], the target named is HIV-1 envelope glycoprotein (Env) of isolate 93TH305, on pseudovirus (HIV-1).
Assay [25] has as its target HIV-1 envelope glycoprotein (Env) of isolate MG RM-A-005, subtype A (HIV-1).
Assay [26] has as its target HIV-1 envelope glycoprotein (Env) of isolate THRO.18, on pseudovirus (HIV-1).

Turning to 5147_N06 (PGT-130) (antibody), the IC50 (ug/mL), pseudovirus neutralization is 0.474 µg/mL in assay [1] and 0.0378 µg/mL in assay [17]. Also, the IC50, pseudovirus neutralization in assay [2] is over 10 µg/mL; in assay [4], over 50 µg/mL; in assay [5] it was 0.009 µg/mL; in assay [6], 0.01 µg/mL; in [12], 0.151 µg/mL; in assay [15], 0.0173 µg/mL. Further, the IC50, pseudovirus neutralization in assay [16] turned out to be 0.0378 µg/mL. In addition, the IC50 (µg/mL), pseudovirus neutralization in [3] is 0.037 µg/mL; in [7], over 50 µg/mL; in assay [8], over 50 µg/mL; in assay [9], 0.023 µg/mL; in [10], 11.8 µg/mL; in [11] it was over 50 µg/mL. Further, the Fold IC50 increase relative to wild-type in [13] is over 1000 fold; in [14] it was 0.5 fold.
Take 5141_B17 (PGT-126) (antibody): the values for the IC50 (ug/mL), pseudovirus neutralization in assay [1] and in assay [17] were 0.0181 µg/mL and 0.0093 µg/mL, respectively. For the same substance, the IC50, pseudovirus neutralization in assay [2] was over 10 µg/mL; in [15], 0.0076 µg/mL; in [16] it was 0.0093 µg/mL; in assay [20], 0.011 µg/mL; in assay [21], over 50 µg/mL; in assay [22], 0.006 µg/mL. For the same substance, the IC50, pseudovirus neutralization in assay [23] is 42 µg/mL; in assay [24], 0.013 µg/mL; in assay [25], over 50 µg/mL; in assay [26], over 50 µg/mL. For the same substance, the IC50 (µg/mL), pseudovirus neutralization in assay [18] was 0.01 µg/mL; in assay [19], over 50 µg/mL. In addition, the results for the Fold IC50 increase relative to wild-type in assay [13] and in [14] were 314 fold and over 30 fold, respectively.
Turning to 5123_A06 (PGT-125) (antibody), the IC50 (ug/mL), pseudovirus neutralization in [1] is over 10 µg/mL; in [17], 0.0382 µg/mL. Also, the IC50, pseudovirus neutralization in assay [2] is over 10 µg/mL; in assay [15], 0.0106 µg/mL; in assay [16], 0.0382 µg/mL; in assay [20], 0.005 µg/mL; in assay [21] it was 0.144 µg/mL; in assay [22], 0.004 µg/mL. For the same substance, the IC50, pseudovirus neutralization in assay [23] was 35.5 µg/mL; in [24] it was 0.008 µg/mL; in [25], over 50 µg/mL; in [26] it was over 50 µg/mL. Moreover, the IC50 (µg/mL), pseudovirus neutralization in assay [18] was 0.008 µg/mL; in assay [19], over 50 µg/mL. The Fold IC50 increase relative to wild-type was 213 fold in assay [13] and 0.8 fold in [14].
